B1: CjAto4 (Williopsis jadinii) (protein)
chain: MSDKENQTLNNPQTQDYASTGGKPDVEHGEIPVSKVYTTGDQDEYLMIGHQKVLRSELWTAFGGDLQPGVHAPPPQRLANPAPLGLCGFALTTFVLSMANARAMGVTIPNAAVGAACFYGGLVQLLAGMWEISLDNTFGGTALSSYGGFWMSWAAIQIDWFGIKKAYDDPIMLANAVGFFLLGWTIFTFMLVLCTVKSTVAFFSLFFFLDITFLLLTIGEFTRKTGVSRAGGVFGVITSFIAWYNAFAGLATKENSYVVAIPLPLPGAKRS
B2: CjJen4 (Williopsis jadinii) (protein)
chain: MTAGRYIATRIPSLFTLPGTPVKSLNPAPAMRALSRSDWNYFAMGYCAWVIDAFDFFCVSACAPALAKAFDRSIHDITWGITLVLMTRSLGAVIFGSLSDTYGRKPTYLAVMALFSIIEIGTGFVQNYTQFLIVRLLFGICMGGCYTTASATALESQPTTSRSVLGGIFLPGYNLGYILAVAFYRAFEFSTHGWRALFWFSAAPPAILFMWRLMFPEHPHFVEHKRVQREKALAEGNHAQAASPWRQFYSDLKKALSNHWLMFVYLVFYLSLMNFSSHASQDLMPTMLQNQLFFSANQRTAIMIVVNLGAMVGGLCVGTLSEFTGRRLAIFSCAVGSSALIYPAFFSTSIGGLMAGGFFMQFFVMGCWGVCSVYIMELSPPAFRALFGGLAYQLGNLASSASSTIESEISSSFPLPDLGPSVYDYAKSMALFMVGVNVCLIVCIVCGPEYFHRDFSAHAEENYSDQKKATIEQFDTASDEERAMGSLKMNTEVEEFDMDKASVQHRESARD
B3: CjJen1 (Williopsis jadinii) (protein)
chain: MHKLEESVTRQDSIHEDPDDVVIEDEQEIILNWPNIVEYSKTRFTSLTHLHLHAVGDLNPLPSLREMSWNNWNFFFMGFVAWFSASFDFFLTAVSGTYIAQSLDVSTADITWGLSAVLMVRSAGAVIFGLWTDNYSRKWPFITTAAMFCALQIGTGFCKTYQQFMAVRAISGIAMGGTYATAAATSMDDAPLKARSFLSGLFFSAYAFGMIFAAIFWRAFESTKHSWKALFWFSSCFPFILICWRLVFPETRYFTRVLKARELIKQDQIEAGVYVKPTLKTKWGSVKAMLKKDWLLFTYLVILLAGTNYLTHASQDMYPTMLRSQLEWSLDAQTVAIVVVNLGAICGGLIAGTFMEVTGRRLAILICCVIGGCFVYPAYMMHNNSAVLGGGFFLFFAVIGVWGVLPIHLSELSPPDARALVSGLAYQLGNLASSASSTIETRLAKLWPLEWDAEGNPIKYDYAKTIACFTGAVFIYVFITTFIGPEKFHRDLSSPLLKTYIEKVIEIEEGRDPEAKFVTSSGDTSEQASYGKATHEEIELDCYPQEKK
B4: CjAto1 (Williopsis jadinii) (protein)
chain: MSDKESQMLNTSQSQERAIDAGCDDLQEDVEHQQVPVSKVFTSGERDEYVMIGRTKVLRSELWNAFGGDLQPGIHAPPPRRFANPAPLGLCGFALTTFVLSMSNARAMGITVANVAVGPAFFYGGIIQLLSGMWEISLDNTFGGTVLSSYGGFWLSWAAIQIDWFGIQRAYDDPIMLNNGLGFFLLGWVIFTLMVLICTVKSTVAFFSLFFFLEMTFLLLTIGEFTRSVGVTRAAGVFGVITSFLGWYNALAGFATRENSYFVATAVPLPGAKRAQVHS
B5: CjAto3 (Williopsis jadinii) (protein)
chain: MAANVDLEKQATPNSSNDNHTFSPEDEAHPVSKVYTSGENDQYIMIGRTKVLRSELWNAFGGDLQPGIHATPPRRFANPAPLGLCAFALTTFVLSMVNARAMGITTPNIVVGLALFYGGFVQLLAGMWEIALDNTFGGTALSSYGGFWMSYAAIQIDWFGIKSAYTDPIELANAVSFFLLGWTIFTFMILLCTVKSTVSFFSLFFFLEITFLLLTIGDFTRRVGVTRAGGVFGVITAFIAWYNAFAGIATKENSYITIKAWPLPGAKRA
B6: CjJen2 (Williopsis jadinii) (protein)
chain: MTSPLPVSPTQDSGLEEPKEDKNIGLTRTLQENEEDSNSSNDEDVPDYSWSSIKRYSRTRFTTLGELHLDSLSDLNPLPALKEMTPRNWNFFFMGFIAWFSASFAFFLTAVSGTVIAESLEVSTKDITWGLSSVLMVRSAGAVIFGLWTDNYSRKWPFIATAAMFCVLQIGTGFCNTYTQFLAGGTYATAAATSLEDAPLKARSTLSGLFFTAYPFGMVFAAIFWRAFQETDHTWKALFWFSAGIPFVLIIWRLLYPETIYFTELLKVKKLIKEEASTSPKISKWAKTKTMFSKYWLLFTYLVLLLASSNFLTHASQDMYPTMLRSQFGWSNDAQTVAIVVTNLGGVIGSLVTGIVMEVLGRRLSILLCCVIGGSFIYPALMLHTTSATLGCGFFMMFGVLGVWGVIPAHLSELSPPDARVLVSGLAYQLGNLASSASSTIETDLAQRWPLEWDAEGNVIRLDYAKTIAVFTGAVFIYTVVIALVGPEKYHRDLNSPLLKKYFAKLRENDVEKGSSSE
B7: CjJen3 (Williopsis jadinii) (protein)
chain: MAMSDVKRYILSRVPTLFCIPGTSFQALNPVPALSALSRNDWNYFLMGYAAWTIDAFDFFCVSACAPALAQALDRSVTDITWGITLVLMTREYFAHIDGQLTDIFEIGSLGAVIFGSLSDTYGRKPTYLAVMCLFCIIEVGTGFVQNYTQFLVVRAMFGICMGGCYTTASATALESQPVGSRSVLGGIFLPGYNLGYILAVAFYRAFEFTEHGWRALFWFSAAPPAILFVWRMFFPEHPHFTALKRVQREKALSEGKHHQASSPWAQFFADLKSAMRHHWLMFVYLVIYMSLMNFSSHASQDLMPTMLQNQLGFEANDRTIIMVVINIGAIFGGLCVGTISEYTGRRLAVFVCTICSSALIYPAFYTTDMAGLICGGFFMQFFVMGCWGVTSVYIMELSPNAFRALFGGLAYQLGNLASSASSTIEAEISEAFPLSDIGPEVYDYARSMALFMVGVNVCLVICIVSGPEKFHKDFSIQGEGQEQLQRKSCNDVDEELAIEYTEDLKHTDRVSWTEKHSIHHNEKT
B8: CjJen5 (Williopsis jadinii) (protein)
chain: MDWDAFDFFVMSLNVSKLATDLDRSVKDISWGITVVLMFRSVGAIVFGYFGDRYGRKWPLIVNLFCLVVIQIGTGFINTYAEFIGVRALFGVFMGSMYGLASATAMEGLPTSARSFLSGVYQQGYALGYLLGVIFQRAITDTTTHTWRSLFWFSAGPPKLKPFLQQQLHMKNKNTSFSEDACKVFKEQWLKMIYLVLLMAGMNFMSHGSQDLYPTMLTVQLNYSPNRSTVTNSVANLGALAGGMTFGHFSGFLGRRSGIIICSILGACMIYPWAFVRNSGINAGVFFLQFFVQGAWGVIPIHLSELSPPEFRAFVVGVSYQLGNLASSASSTIESTLGERYPLYDDNGDVIEGVYDYARVMAIFVGAVFCYVILIAFIGPENRHSNINYVLSKEEEEELIQQRMIVTNNGSEQDSNADDEEKLVTAHTEKIEPK
B9: CjAto5 (Williopsis jadinii) (protein)
chain: MSTSSLPEDLEKGYATQSLHEMNTAVTNDPSQPVVMRVVTSSNGDIIHLGNQAFSKKDLFNAFAGDLQPGLHATPHRPMGNPVPMGLTSFCICCFVVSLVNAQARGVTNAKVIASCALFFAGVVETISGLWCLVIENTFAATALGSFGGFWMGYAGLLIDAFGITSSYSTTEELGNALGFYLTAWTIFAFLMWLCTFKSTWPFFILFLLVWVFLMCLAIGKYNDNTTATKAGGVLGLVATFVGFFIVYAGVADSSNSYLTIPASPMPHAPRV

Substrate: CC(=O)O
Assay: cells, lysate or membranes
Conditions: pH 6.0, 30 °C, labelled compound, pH 6.0

Question: With B1 as the protein, how does the Km read?
Answer: 1.28 ± 0.38 mM

Question: How did the Km turn out when B2 was run?
Answer: 1.62 ± 0.43 mM

Question: With B3 as the protein, how does the Km read?
Answer: 2.15 ± 0.60 mM

Question: For B4, which Km is on record?
Answer: 12.18 ± 4.67 mM

Question: For B5, which Km is on record?
Answer: 9.17 ± 4.70 mM

Question: With B6 as the protein, how does the Km read?
Answer: 1.26 ± 0.35 mM

Question: How did the Km turn out when B7 was run?
Answer: 3.21 ± 1.07 mM

Question: Which Km does the source give for B8 here?
Answer: 5.18 ± 1.51 mM

Substrate: O=C(O)CC(O)(CC(=O)O)C(=O)O
Assay: cells, lysate or membranes
Conditions: pH 5.5, 30 °C, labelled compound, pH 5.5

Question: For B9, which Km is on record?
Answer: 22.21 ± 7.14 mM
